The target in one series is T1, Esp1 (Saccharomyces cerevisiae, UniProt Q03018).
T1 construct: made in house; host or cells: S. cerevisiae W303 derivative overexpressing Esp1p from the GAL1-10 promoter; soluble cell extract, not purified
Put plainly: In vitro assay for yeast Esp1p activity (Esp1-dependent Scc1p cleavage). It is filed as biochemical. The following applies: yeast chromatin incubated with extract over-producing Esp1; Western blot. As to the method: A crude Triton X-100 insoluble chromatin preparation was obtained from yeast cells as described (Liang and Stillman, 1997). The pelleted chromatin was resuspended in yeast cell extracts that had been prepared similar to the supernatant fraction of the chromatin preparation. One tenth volume of an ATP regenerating system was added (50 mM HEPES/KOH pH-7.5, 100 mM KCl, 10 mM MgCl2, 10 mM ATP, 600 mM creatin phosphate, 1.5 mg/ml phophocreatin kinase, 1 mM DTT, 10% glycerol). Reactions were incubated for 10 min at 25° C. with shaking and stopped on ice. The chromatin fraction was separated again from the supernatant by centrifugation, and resuspended in buffer EBX (Liang and Stillman, 1997). Equivalent aliquots of supernatant and chromatin pellet were analysed by SDS-PAGE and Western blotting. Scc1-HA was detected with the anti-HA monoclonal antibody 16B12 (Boehringer Mannheim). […]
Chromatin was prepared from a strain containing Scc1p tagged with HA epitopes that was arrested in metaphase with nocodazol. The proteins in the chromatin preparation were resolved by SDS-PAGE and Scc1-HA was detected by western blotting (FIG. 2, lane 1). […] Aliquots of the supernatant fraction and the chromatin fraction of each reaction were analysed.

Series [1] deals with T2, Scc1p tagged with multiple HA epitopes, chromatin-bound (chromatin of nocodazole-arrested yeast), Q12158.
T2 chain: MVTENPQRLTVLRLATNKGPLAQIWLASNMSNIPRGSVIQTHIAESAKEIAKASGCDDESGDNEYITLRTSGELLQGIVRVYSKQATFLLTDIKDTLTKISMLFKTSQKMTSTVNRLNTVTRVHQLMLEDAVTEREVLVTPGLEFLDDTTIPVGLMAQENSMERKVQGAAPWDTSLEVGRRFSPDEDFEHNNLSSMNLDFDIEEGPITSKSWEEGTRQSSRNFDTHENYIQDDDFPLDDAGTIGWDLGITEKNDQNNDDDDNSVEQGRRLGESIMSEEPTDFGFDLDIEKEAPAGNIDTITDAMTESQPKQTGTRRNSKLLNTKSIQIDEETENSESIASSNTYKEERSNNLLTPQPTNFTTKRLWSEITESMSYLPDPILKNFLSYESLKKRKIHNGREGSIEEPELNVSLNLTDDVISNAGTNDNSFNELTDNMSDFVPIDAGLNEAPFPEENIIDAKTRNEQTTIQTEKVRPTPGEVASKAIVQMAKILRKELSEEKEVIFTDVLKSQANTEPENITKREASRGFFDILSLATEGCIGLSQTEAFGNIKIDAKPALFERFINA

The source of these data is US7410774B1, “Compounds modulating sister chromatid separation and method for identifying same” (Boehringer Ingelheim International GmbH, priority 1999, dated 2008).

Numbering of substitutions follows the chain as printed. Names may count otherwise.

T1 sequence (Q03018 whole entry): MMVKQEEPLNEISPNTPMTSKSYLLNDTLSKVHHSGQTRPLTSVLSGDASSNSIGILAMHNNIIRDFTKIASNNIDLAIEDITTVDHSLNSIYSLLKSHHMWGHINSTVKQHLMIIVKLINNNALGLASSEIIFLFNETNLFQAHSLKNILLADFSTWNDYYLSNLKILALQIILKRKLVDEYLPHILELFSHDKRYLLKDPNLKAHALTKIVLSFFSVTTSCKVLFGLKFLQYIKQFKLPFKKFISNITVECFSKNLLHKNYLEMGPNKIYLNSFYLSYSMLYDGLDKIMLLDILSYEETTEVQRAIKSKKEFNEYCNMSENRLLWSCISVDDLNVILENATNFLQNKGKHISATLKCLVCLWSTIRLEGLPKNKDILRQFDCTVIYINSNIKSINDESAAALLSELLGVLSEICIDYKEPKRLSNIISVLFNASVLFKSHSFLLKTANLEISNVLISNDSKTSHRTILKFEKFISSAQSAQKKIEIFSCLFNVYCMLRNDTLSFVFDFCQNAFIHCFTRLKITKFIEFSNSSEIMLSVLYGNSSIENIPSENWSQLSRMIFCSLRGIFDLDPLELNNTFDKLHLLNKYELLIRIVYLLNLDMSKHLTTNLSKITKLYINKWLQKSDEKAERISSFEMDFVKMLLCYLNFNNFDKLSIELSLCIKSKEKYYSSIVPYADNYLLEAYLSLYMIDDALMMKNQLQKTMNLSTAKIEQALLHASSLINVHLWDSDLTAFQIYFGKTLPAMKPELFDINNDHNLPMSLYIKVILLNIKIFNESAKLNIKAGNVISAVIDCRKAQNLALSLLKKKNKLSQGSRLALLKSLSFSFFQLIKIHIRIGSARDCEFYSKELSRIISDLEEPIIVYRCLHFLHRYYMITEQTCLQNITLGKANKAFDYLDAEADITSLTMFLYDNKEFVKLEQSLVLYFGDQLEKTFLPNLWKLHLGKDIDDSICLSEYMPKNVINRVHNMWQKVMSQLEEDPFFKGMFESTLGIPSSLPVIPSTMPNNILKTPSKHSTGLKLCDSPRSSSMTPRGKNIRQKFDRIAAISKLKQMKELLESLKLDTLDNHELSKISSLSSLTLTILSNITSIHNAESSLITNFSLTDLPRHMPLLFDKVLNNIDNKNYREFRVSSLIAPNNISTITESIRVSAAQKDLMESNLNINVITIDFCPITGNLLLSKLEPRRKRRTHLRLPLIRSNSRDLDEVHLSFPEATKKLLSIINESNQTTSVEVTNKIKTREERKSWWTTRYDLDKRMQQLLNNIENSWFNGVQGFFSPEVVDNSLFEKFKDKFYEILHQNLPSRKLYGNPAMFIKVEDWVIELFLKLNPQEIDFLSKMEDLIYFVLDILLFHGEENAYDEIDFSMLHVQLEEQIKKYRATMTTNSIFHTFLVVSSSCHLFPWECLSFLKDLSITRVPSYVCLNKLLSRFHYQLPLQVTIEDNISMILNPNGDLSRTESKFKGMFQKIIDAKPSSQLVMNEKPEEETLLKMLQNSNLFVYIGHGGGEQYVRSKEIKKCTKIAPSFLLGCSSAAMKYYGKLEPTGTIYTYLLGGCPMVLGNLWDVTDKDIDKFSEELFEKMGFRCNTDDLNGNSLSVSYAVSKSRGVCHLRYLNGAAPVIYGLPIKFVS

On to `CCN1C(=O)C=CC1=O` [N-ethyl maleimide], for which the “Esp1-dependent in vitro cleavage of Scc1p” value on Esp1 is “inhibited”.

B1: Pds1: yeast inhibitory protein binding Esp1; in vitro translated in reticulocyte lysate (protein)
chain: MMPANEDKENNIVYTGNESSGINFPQTPAHLLKRSHSNILKPPVRLDQLKRDANSNNGNTLKYIQGGKEVSPTKRLHTHAQQQGRLPLAAKDNNRSKSFIFPETSNQSKDADLPQLQNTLSIRKNDQLRKLSQISRSRSRANHNDLLSNSRKLQKYGSVLGYNALPKMKSLVLKDLADSGKNEESSDDDEGNEDSESKLGKKLQSALLKQDSSDGENELNGGLGLFNEQGGLQQLIKNSTKNEQKTKNDKSDKTDDYDIEIAPQRQEPLPYVPEGYSPFQQDDIEKLKTFNSPYKLDLEDEDDTPDKVDLLPLEQIDEEGEKDETECITRNQEEGAALPLLSKNFKEVAAVPTMELVYSEEGLDPEELEDLVT
Regarding B1, the “Esp1-dependent in vitro cleavage of Scc1p” value with Esp1 is reported as “inhibited”.

B2: Esp1 mutant C1531A tagged with a FLAG epitope, overexpressed in yeast (protein)
chain: MMVKQEEPLNEISPNTPMTSKSYLLNDTLSKVHHSGQTRPLTSVLSGDASSNSIGILAMHNNIIRDFTKIASNNIDLAIEDITTVDHSLNSIYSLLKSHHMWGHINSTVKQHLMIIVKLINNNALGLASSEIIFLFNETNLFQAHSLKNILLADFSTWNDYYLSNLKILALQIILKRKLVDEYLPHILELFSHDKRYLLKDPNLKAHALTKIVLSFFSVTTSCKVLFGLKFLQYIKQFKLPFKKFISNITVECFSKNLLHKNYLEMGPNKIYLNSFYLSYSMLYDGLDKIMLLDILSYEETTEVQRAIKSKKEFNEYCNMSENRLLWSCISVDDLNVILENATNFLQNKGKHISATLKCLVCLWSTIRLEGLPKNKDILRQFDCTVIYINSNIKSINDESAAALLSELLGVLSEICIDYKEPKRLSNIISVLFNASVLFKSHSFLLKTANLEISNVLISNDSKTSHRTILKFEKFISSAQSAQKKIEIFSCLFNVYCMLRNDTLSFVFDFCQNAFIHCFTRLKITKFIEFSNSSEIMLSVLYGNSSIENIPSENWSQLSRMIFCSLRGIFDLDPLELNNTFDKLHLLNKYELLIRIVYLLNLDMSKHLTTNLSKITKLYINKWLQKSDEKAERISSFEMDFVKMLLCYLNFNNFDKLSIELSLCIKSKEKYYSSIVPYADNYLLEAYLSLYMIDDALMMKNQLQKTMNLSTAKIEQALLHASSLINVHLWDSDLTAFQIYFGKTLPAMKPELFDINNDHNLPMSLYIKVILLNIKIFNESAKLNIKAGNVISAVIDCRKAQNLALSLLKKKNKLSQGSRLALLKSLSFSFFQLIKIHIRIGSARDCEFYSKELSRIISDLEEPIIVYRCLHFLHRYYMITEQTCLQNITLGKANKAFDYLDAEADITSLTMFLYDNKEFVKLEQSLVLYFGDQLEKTFLPNLWKLHLGKDIDDSICLSEYMPKNVINRVHNMWQKVMSQLEEDPFFKGMFESTLGIPSSLPVIPSTMPNNILKTPSKHSTGLKLCDSPRSSSMTPRGKNIRQKFDRIAAISKLKQMKELLESLKLDTLDNHELSKISSLSSLTLTILSNITSIHNAESSLITNFSLTDLPRHMPLLFDKVLNNIDNKNYREFRVSSLIAPNNISTITESIRVSAAQKDLMESNLNINVITIDFCPITGNLLLSKLEPRRKRRTHLRLPLIRSNSRDLDEVHLSFPEATKKLLSIINESNQTTSVEVTNKIKTREERKSWWTTRYDLDKRMQQLLNNIENSWFNGVQGFFSPEVVDNSLFEKFKDKFYEILHQNLPSRKLYGNPAMFIKVEDWVIELFLKLNPQEIDFLSKMEDLIYFVLDILLFHGEENAYDEIDFSMLHVQLEEQIKKYRATMTTNSIFHTFLVVSSSCHLFPWECLSFLKDLSITRVPSYVCLNKLLSRFHYQLPLQVTIEDNISMILNPNGDLSRTESKFKGMFQKIIDAKPSSQLVMNEKPEEETLLKMLQNSNLFVYIGHGGGEQYVRSKEIKKCTKIAPSFLLGASSAAMKYYGKLEPTGTIYTYLLGGCPMVLGNLWDVTDKDIDKFSEELFEKMGFRCNTDDLNGNSLSVSYAVSKSRGVCHLRYLNGAAPVIYGLPIKFVS
B2: the “Scc1 cleavage activity in yeast extracts” value in series [1] is “Both mutations completely abolished the proteolytic activity in yeast extracts after overproduction of the proteins”.

B3: Wildtype Esp1 tagged with a FLAG epitope, overexpressed in yeast (protein)
chain: B2 chain with A1531C
With B3, the “Scc1 cleavage activity in yeast extracts” value in series [1] is “Wild type Esp1 overexpressed to a similar level caused complete cleavage of the Scc1 substrate”.

B4: Esp1 mutant H1505A tagged with a FLAG epitope, overexpressed in yeast (protein)
chain: B2 chain with H1505A, A1531C
Turning to B4, in series [1], the “Scc1 cleavage activity in yeast extracts” value is reported as “Both mutations completely abolished the proteolytic activity in yeast extracts after overproduction of the proteins”.
